Article PMC11746035 (Frontiers in Immunology, 2024)

Target: T1, SARS-CoV-2 BQ.1.1 RBD (SARS-CoV-2, Omicron BQ.1.1, L452R | K444T)
T1 construct: also called L452R RBD of BQ.1.1
Assay: BLI; antibody (IgG1, 11 μg/mL) loaded on AHC2 biosensor to about 1.5 nm; RBD in solution, association 300 s, dissociation 600 s; PBS-TB (PBS, 0.02% v/v Tween-20, 0.1% w/v BSA); 25°C; 1,000 rpm; binding response less than 0.1 considered non-binding
Conditions: both partners purified

B1: BD57-028 N56 allelic variant (antibody, V domains shown)
VH: QITLKESGPTLVKPTQTLTLTCTFSGFSLSASGEGMGWIRQPPGKALEWLALIYWNADERYSPSLRSRLTITKDTSKNQVVLKMTNMNPVDTATYYCAHHSITTVVDYWGQGMLVTVSS
VL: QSALTQPASVSGSPGQSITISCTGTISDVGAFNYVSWYQQHPGRAPKLIIYDVSTRPSGISIRFSGSKSGNTASLTISGLQPEDEADYYCSSYSHTSLVFGTGTKVTVL
notes: as the heavy chain of m8, with N56 in place of D56; numbers count on: IMGT unique numbering, excluding any gaps; as the light chain of m8; IgG1; also called N56 allele
fold increase in binding affinity against the D56 variant: 57 fold

B2: BD56-595 N56 allelic variant (antibody, V domains shown)
VH: QITLKESGPTLVKPTQTLTLTCTFSGFSITTAGVGVGWIRQPPGKALEWLALIYWNGDRRYSPSLKNRVDITTDISKNQVVLTMTNMAPVDTATYYCAQHTIDMILDYWGQGTLVTVSS
VL: QSALTQPPSASGSPGQSVTISCTATSSDVGAYNYVSWYQQHPGKAPKLMIYEVNKRPSGVPDRFSGSKSGNTASLTVSGLQAEDEADYYCSSYTDNIVFGTGTRVTVL
notes: as the heavy chain of m12, with N56 in place of D56; numbers count on: IMGT unique numbering, excluding any gaps; as the light chain of m12; IgG1; also called N56 allele
fold increase in binding affinity against the D56 variant: 57 fold
